Measured values from patent US12221480.

Assays:
[1] = biological target: recombinant human soluble γ2 δ3TCR-FC (wild type) (human) (UniProt B7Z8K6); test: Octet, γ2δ3TCR-hFc captured on anti-human Fc biosensor; row antibody δ3-08 taken as first (saturating), column antibody as second; 5 µg/mL each
[2] = biological target: γ2δ3 TCR-hFc mutant S7 (D57N, R65Q in the Vδ3 chain) (human) (UniProt B7Z8K6); test: Luminex beads; TCR-hFc captured by goat anti-human Fc; antibody titrated
[3] = biological target: γ2δ3 TCR-hFc mutant S5 (D70N, E67Q in the Vδ3 chain) (human) (UniProt B7Z8K6); test: as above
[4] = biological target: γ2δ3 TCR-hFc mutant S4 (E18Q in the Vδ3 chain) (human) (UniProt B7Z8K6); test: as above
[5] = biological target: γ2δ3 TCR-hFc mutant S3 (K79L, H88F in the Vδ3 chain) (human) (UniProt B7Z8K6); test: as above
[6] = biological target: γ2δ3 TCR-hFc mutant S1 (D10N in the Vδ3 chain) (human) (UniProt B7Z8K6); test: as above
[7] = biological target: γ2δ3 TCR-hFc mutant S8 (K79L, E18Q, H88F in the Vδ3 chain) (human) (UniProt B7Z8K6); test: as above
[8] = biological target: γ2δ3 TCR-hFc mutant S11 (K79L, L82K, H88F in the Vδ3 chain) (human) (UniProt B7Z8K6); test: as above
[9] = biological target: γ2δ3 TCR-hFc mutant S10 (K3A, K79L, H88T in the Vδ3 chain) (human) (UniProt B7Z8K6); test: as above
[10] = biological target: γ2δ3 TCR-hFc mutant S2 (D26N, K85L in the Vδ3 chain) (human) (UniProt B7Z8K6); test: as above
[11] = biological target: recombinant human soluble γ2 δ3TCR-FC (wild type) (human) (UniProt B7Z8K6); test: as above
[12] = biological target: recombinant human soluble γ2 δ3TCR-FC (wild type) (human) (UniProt B7Z8K6); test: Octet, γ2δ3TCR-hFc captured on anti-human Fc biosensor; row antibody δ3-23 taken as first (saturating), column antibody as second; 5 µg/mL each
[13] = biological target: recombinant human soluble γ2 δ3TCR-FC (wild type) (human) (UniProt B7Z8K6); test: Octet, γ2δ3TCR-hFc captured on anti-human Fc biosensor; row antibody δ3-31 taken as first (saturating), column antibody as second; 5 µg/mL each; self pair
[14] = biological target: recombinant human soluble γ2 δ3TCR-FC (wild type) (human) (UniProt B7Z8K6); test: Octet, γ2δ3TCR-hFc captured on anti-human Fc biosensor; row antibody δ3-42 taken as first (saturating), column antibody as second; 5 µg/mL each
[15] = biological target: recombinant human soluble γ2 δ3TCR-FC (wild type) (human) (UniProt B7Z8K6); test: Octet, γ2δ3TCR-hFc captured on anti-human Fc biosensor; row antibody δ3-58 taken as first (saturating), column antibody as second; 5 µg/mL each
[16] = biological target: γ2δ3 TCR-hFc mutant S6 (R75Q, R95Q in the Vδ3 chain) (human) (UniProt B7Z8K6); test: Luminex beads; TCR-hFc captured by goat anti-human Fc; antibody titrated; extrapolated value, no saturation achieved
[17] = biological target: γ2δ3 TCR-hFc mutant S9 (E67Q, D70N, R75Q, R95Q, E97Q in the Vδ3 chain) (human) (UniProt B7Z8K6); test: as above

paired-competition value (Octet signal of the second antibody per paragraph 256) [1]: 0.44
EC50 [2]: 50 pM
EC50 [3]: 4990 pM
EC50 [4]: 50 pM
EC50 [5]: 50 pM
EC50 [6]: 60 pM
EC50 [7]: 60 pM
EC50 [8]: 60 pM
EC50 [9]: 80 pM
EC50 [10]: 50 pM
EC50 [11]: 50 pM
paired-competition value (Octet signal of the second antibody per paragraph 256) [12]: 0.4
paired-competition value (Octet signal of the second antibody per paragraph 256) [13]: 0.07
paired-competition value (Octet signal of the second antibody per paragraph 256) [14]: 0.37
paired-competition value (Octet signal of the second antibody per paragraph 256) [15]: 0.38
EC50 [16]: 44400 pM
EC50 [17]: 37700 pM
B1: δ3-31 (antibody, V domains shown)
VH: DVQLQESGPDLVKPSQSLSLTCTVTGYSITSGYGWHWIRQFPGNKLEWMGYISFSGSNKYNPSLKSRISITRDTSKNQFFLQLNSVTTEDTATYYCANLDYWGQGTTLTVSS
VL: DIQMTQRTSSLSASLGDRVTISCSASQDITNYLHWFQQKPDGTVKLLIYYTSTLHSGVPSRFSGSGSGTDYSLTISNLEPEDIATYYCQQYSKLPYTFGGGTKLEITR
